The chains are these.
B1: Homeobox protein cut-like 1, residues 941 to 1008; numbered along this chain, P39880 (parent)
chain: QEVDTIELTRQVKEKLAKNGICQRIFGEKVLGLSQGSVSDMLSRPKPWSKLTQKGREPFIRMQLWLNG

± gives the uncertainty stated by the source.

The variants in this series derive from B1. In words: abundance fitness (aPCA) (normalised: wild type 0, dead -1); higher = more abundant; growth selection in yeast, the domain comes from the species named. The following applies: Homo sapiens.
Turning to QEVDTIELTRQVKEKLAKTGICQRIFGEKVLGLSQGSVSDMLSRPKPWSKLTQKGREPFIRMQLWLNG, the abundance fitness was 0.034 ± 0.062. For the variant QEVDTIELTRQVKEKLAKEGICQRIFGEKVLGLSQGSVSDMLSRPKPWSKLTQKGREPFIRMQLWLNG, the abundance fitness amounted to 0.098 ± 0.059. The result for QEVDTIELTRQVKEKLAKMGICQRIFGEKVLGLSQGSVSDMLSRPKPWSKLTQKGREPFIRMQLWLNG reads 0.017 ± 0.078. Then QEVDTIELTRQVKEKLAKQGICQRIFGEKVLGLSQGSVSDMLSRPKPWSKLTQKGREPFIRMQLWLNG, with 0.042 ± 0.061; and QEVDTIELTRQVKEKLAKLGICQRIFGEKVLGLSQGSVSDMLSRPKPWSKLTQKGREPFIRMQLWLNG, with 0.125 ± 0.052; and QEVDTIELTRQVKEKLANNGICQRIFGEKVLGLSQGSVSDMLSRPKPWSKLTQKGREPFIRMQLWLNG, with -0.051 ± 0.12. The result for QEVDTIELTRQVKEKLAQNGICQRIFGEKVLGLSQGSVSDMLSRPKPWSKLTQKGREPFIRMQLWLNG reads -0.134 ± 0.082.

Take QEVDTIELTRQVKEKLAFNGICQRIFGEKVLGLSQGSVSDMLSRPKPWSKLTQKGREPFIRMQLWLNG: the abundance fitness was -0.287 ± 0.089. Then QEVDTIELTRQVKEKLAVNGICQRIFGEKVLGLSQGSVSDMLSRPKPWSKLTQKGREPFIRMQLWLNG, with -0.184 ± 0.05. The result for QEVDTIELTRQVKEKLAWNGICQRIFGEKVLGLSQGSVSDMLSRPKPWSKLTQKGREPFIRMQLWLNG reads -0.272 ± 0.071.

QEVDTIELTRQVKEKLACNGICQRIFGEKVLGLSQGSVSDMLSRPKPWSKLTQKGREPFIRMQLWLNG: the abundance fitness was -0.261 ± 0.14. Then QEVDTIELTRQVKEKLAGNGICQRIFGEKVLGLSQGSVSDMLSRPKPWSKLTQKGREPFIRMQLWLNG, with -0.226 ± 0.056. The result for QEVDTIELTRQVKEKLAINGICQRIFGEKVLGLSQGSVSDMLSRPKPWSKLTQKGREPFIRMQLWLNG reads -0.085 ± 0.12.

With QEVDTIELTRQVKEKLALNGICQRIFGEKVLGLSQGSVSDMLSRPKPWSKLTQKGREPFIRMQLWLNG, the abundance fitness was -0.168 ± 0.047. Then QEVDTIELTRQVKEKLAMNGICQRIFGEKVLGLSQGSVSDMLSRPKPWSKLTQKGREPFIRMQLWLNG, with -0.059 ± 0.068. The result for QEVDTIELTRQVKEKLAHNGICQRIFGEKVLGLSQGSVSDMLSRPKPWSKLTQKGREPFIRMQLWLNG reads -0.412 ± 0.14; that for QEVDTIELTRQVKEKLARNGICQRIFGEKVLGLSQGSVSDMLSRPKPWSKLTQKGREPFIRMQLWLNG, -0.139 ± 0.048.

QEVDTIELTRQVKEKLADNGICQRIFGEKVLGLSQGSVSDMLSRPKPWSKLTQKGREPFIRMQLWLNG: the abundance fitness is -0.397 ± 0.11. The result for QEVDTIELTRQVKEKLAENGICQRIFGEKVLGLSQGSVSDMLSRPKPWSKLTQKGREPFIRMQLWLNG reads 0 ± 0.071; that for QEVDTIELTRQVKEKLAYNGICQRIFGEKVLGLSQGSVSDMLSRPKPWSKLTQKGREPFIRMQLWLNG, -0.527 ± 0.15; that for QEVDTIELTRQVKEKLAANGICQRIFGEKVLGLSQGSVSDMLSRPKPWSKLTQKGREPFIRMQLWLNG, -0.083 ± 0.053.

For QEVDTIELTRQVKEKLASNGICQRIFGEKVLGLSQGSVSDMLSRPKPWSKLTQKGREPFIRMQLWLNG, the abundance fitness was -0.102 ± 0.057. QEVDTIELTRQVKEKGAKNGICQRIFGEKVLGLSQGSVSDMLSRPKPWSKLTQKGREPFIRMQLWLNG: the abundance fitness was -0.015 ± 0.076. Then QEVDTIELTRQVKEKAAKNGICQRIFGEKVLGLSQGSVSDMLSRPKPWSKLTQKGREPFIRMQLWLNG, with -0.188 ± 0.067.

In the case of QEVDTIELTRQVKEKYAKNGICQRIFGEKVLGLSQGSVSDMLSRPKPWSKLTQKGREPFIRMQLWLNG, the abundance fitness was -0.278 ± 0.1.

With QEVDTIELTRQVKEKEAKNGICQRIFGEKVLGLSQGSVSDMLSRPKPWSKLTQKGREPFIRMQLWLNG, the abundance fitness is -0.032 ± 0.09. QEVDTIELTRQVKEKMAKNGICQRIFGEKVLGLSQGSVSDMLSRPKPWSKLTQKGREPFIRMQLWLNG: the abundance fitness amounted to 0.107 ± 0.071. Then QEVDTIELTRQVKEKVAKNGICQRIFGEKVLGLSQGSVSDMLSRPKPWSKLTQKGREPFIRMQLWLNG, with -0.162 ± 0.062.

For QEVDTIELTRQVKEKQAKNGICQRIFGEKVLGLSQGSVSDMLSRPKPWSKLTQKGREPFIRMQLWLNG, the abundance fitness was -0.102 ± 0.074. Turning to QEVDTIELTRQVKEKHAKNGICQRIFGEKVLGLSQGSVSDMLSRPKPWSKLTQKGREPFIRMQLWLNG, the abundance fitness stood at 0.009 ± 0.099. Then QEVDTIELTRQVKEKTAKNGICQRIFGEKVLGLSQGSVSDMLSRPKPWSKLTQKGREPFIRMQLWLNG, with 0.023 ± 0.077. QEVDTIELTRQVKEKCAKNGICQRIFGEKVLGLSQGSVSDMLSRPKPWSKLTQKGREPFIRMQLWLNG: the abundance fitness was -0.073 ± 0.087. Then QEVDTIELTRQVKEKPAKNGICQRIFGEKVLGLSQGSVSDMLSRPKPWSKLTQKGREPFIRMQLWLNG, with 0.004 ± 0.068; and QEVDTIELTRQVKEKWAKNGICQRIFGEKVLGLSQGSVSDMLSRPKPWSKLTQKGREPFIRMQLWLNG, with -0.194 ± 0.07; and QEVDTIELTRQVKEKDAKNGICQRIFGEKVLGLSQGSVSDMLSRPKPWSKLTQKGREPFIRMQLWLNG, with -0.189 ± 0.12.

Consider QEVDTIELTRQVKEKRAKNGICQRIFGEKVLGLSQGSVSDMLSRPKPWSKLTQKGREPFIRMQLWLNG, for which the abundance fitness was -0.033 ± 0.056. Then QEVDTIELTRQVKEKSAKNGICQRIFGEKVLGLSQGSVSDMLSRPKPWSKLTQKGREPFIRMQLWLNG, with -0.033 ± 0.055; and QEVDTIELTRQVKEKFAKNGICQRIFGEKVLGLSQGSVSDMLSRPKPWSKLTQKGREPFIRMQLWLNG, with -0.257 ± 0.095. Then QEVDTIELTRQVKEKIAKNGICQRIFGEKVLGLSQGSVSDMLSRPKPWSKLTQKGREPFIRMQLWLNG, with -0.198 ± 0.13; and QEVDTIELTRQVKEKNAKNGICQRIFGEKVLGLSQGSVSDMLSRPKPWSKLTQKGREPFIRMQLWLNG, with -0.217 ± 0.15.

(Values after the Human Domainome abundance scans (Beltran et al. 2025).)
